Results on two variants are retold here after PMC6355003.

B1: Drp1 (dynamin-related protein Drp1), wild type [not stated] / GST-MiD51^133-463, wild type [human] (parent)
chain 1: MEALIPVINKLQDVFNTVGADIIQLPQIVVVGTQSSGKSSVLESLVGRDLLPRGTGIVTRRPLILQLVHVSQEDKRKTTGEENGVEAEEWGKFLHTKNKLYTDFDEIRQEIENETERISGNNKGVSPEPIHLKIFSPNVVNLTLVDLPGMTKVPVGDQPKDIELQIRELILRFISNPNSIILAVTAANTDMATSEALKISREVDPDGRRTLAVITKLDLMDAGTDAMDVLMGRVIPVKLGIIGVVNRSQLDINNKKSVTDSIRDEYAFLQKKYPSLANRNGTKYLARTLNRLLMHHIRDCLPELKTRINVLAAQYQSLLNSYGEPVDDKSATLLQLITKFATEYCNTIEGTAKYIETSELCGGARICYIFHETFGRTLESVDPLGGLNTIDILTAIRNATGPRPALFVPEVSFELLVKRQIKRLEEPSLRCVELVHEEMQRIIQHCSNYSTQELLRFPKLHDAIVEVVTCLLRKRLPVTNEMVHNLVAIELAYINTKHPDFADACGLMNNNIEEQRRNRLARELPSAVSRDKVASGGGGVGDGVQEPTTGNWRGMLKTSKAEELLAEEKSKPIPIMPASPQKGHAVNLLDVPVPVARKLSAREQRDCEVIERLIKSYFLIVRKNIQDSVPKAVMHFLVNHVKDTLQSELVGQLYKSSLLDDLLTESEDMAQRRKEAADMLKALQGASQIIAEIRETHLW
chain 2: MSLQEKLLTYYRNRAAIPAGEQARAKQAAVDICAELRSFLRAKLPDMPLRDMYLSGSLYDDLQVVTADHIQLIVPLVLEQNLWSCIPGEDTIMNVPGFFLVRRENPEYFPRGSSYWDRCVVGGYLSPKTVADTFEKVVAGSINWPAIGSLLDYVIRPAPPPEALTLEVQYERDKHLFIDFLPSVTLGDTVLVAKPHRLAQYDNLWRLSLRPAETARLRALDQADSGCRSLCLKILKAICKSTPALGHLTASQLTNVILHLAQEEADWSPDMLADRFLQALRGLISYLEAGVLPSALNPKVNLFAELTPEEIDELGYTLYCSLSEPEVLLQT

Variants of B1 are the subject of the assay. The assay can be described thus: GST pull-down, SDS-PAGE band quantification. Conditions: with GST-MiD51^133-463, wild type [human], read off a plot.
[1] abbreviates: Apo (no nucleotide), parent: 0.15.

As to chain 1 G401A P402A R403A P404A, the response runs as follows: (1 mM GDP-AlFx, parent: 0.085) 0.05 molar ratio; (1 mM GDP, parent: 0.14) 0.05 molar ratio; (1 mM GMP-PNP, parent: 0.69) 0.065 molar ratio; (1 mM GTP, parent: 0.37) 0.06 molar ratio; under setting [1], 0.07 molar ratio.

Take chain 1 K38A: the response worked out at 0.34 molar ratio (1 mM GDP-AlFx, parent: 0.085); 0.36 molar ratio (1 mM GDP, parent: 0.14); 0.43 molar ratio (1 mM GMP-PNP, parent: 0.69); 0.4 molar ratio (1 mM GTP, parent: 0.37); 0.36 molar ratio under setting [1]; 0.36 molar ratio (parent: 0.15).
